Assays:
[1] = molecular target: T1, C4.4A-DIDII^1-199 fused to a C-terminal uPAR DIII purification tag (Homo sapiens, UniProt O95274); assay: far-Western, overlay or dot blot; immunoblot: purified C4.4A domain constructs, unreduced (lanes 1-6), separated by SDS-PAGE and immobilized on a PVDF membrane; 1 µg/mL mAb 11H10 as primary antibody, peroxidase-conjugated anti-mouse immunoglobulins, ECL; details: both partners purified
T1 construct: C4.4A (LYPD3), human, both LU-domains DI and DII, residues 1-199; also called C4.4A-DIDII (blot construct); not shown: uPAR DIII, C-terminal, kept

[2] = molecular target: T2, C4.4A^1-278 fused to a C-terminal uPAR DIII purification tag (Homo sapiens, UniProt O95274); assay: as above; details: both partners purified
T2 construct: C4.4A (LYPD3), human, DI, DII and STP-rich region, residues 1-278; also called C4.4A-ent-uPAR-DIII; not shown: uPAR DIII, C-terminal, kept
T2 sequence (O95274 whole entry, looked up, the tested form may be a part): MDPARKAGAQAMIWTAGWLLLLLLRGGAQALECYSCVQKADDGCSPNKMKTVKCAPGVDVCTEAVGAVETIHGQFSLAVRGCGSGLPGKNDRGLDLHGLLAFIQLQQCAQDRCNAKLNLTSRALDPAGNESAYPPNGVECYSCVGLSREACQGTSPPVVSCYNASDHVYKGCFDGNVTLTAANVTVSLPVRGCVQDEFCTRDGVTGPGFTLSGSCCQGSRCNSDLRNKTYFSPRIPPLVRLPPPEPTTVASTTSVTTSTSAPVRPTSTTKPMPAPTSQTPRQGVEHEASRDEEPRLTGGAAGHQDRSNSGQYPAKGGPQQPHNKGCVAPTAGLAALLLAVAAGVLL

T1 sequence (O95274 whole entry, looked up, the tested form may be a part): as above

B1: mouse monoclonal anti-human C4.4A antibody 11H10 (antibody, V domains shown)
VH: QVTLKESGPGILQPSQTLSLTCSFSGFSLNSFGTGVGWIRQPSGKGLEWLAHIWWNDYKYYNAALESRLTISKDTSNNQVFLKIASVDTADTATYYCARLRLRYFDYWGQGTTLTVSS
VL: DILMTQSPAILSVSPGEGVSFSCWANQNIGTSIHWYQQRTNGSPRLLIKYASESISGIPSRFSGSGSGTDFTLSINSVESEDIADYYCQQSNSWPIFTFGSGTKLEIK
notes: 11H10 light chain (kappa), printed as the Fab light chain; 11H10 heavy chain VH, CH1 and start of the hinge, printed as the Fab heavy chain; mouse IgG1 heavy chain constant region, the rest of the hinge, CH2 and CH3 that follow the printed Fd (ends VPRDC); IgG1 kappa; also called mAb 11H10; source: mouse hybridoma (FVB mice immunized with recombinant human C4.4A), purified
binding result [1]: binds | binding result [2]: binds
